Source: the supplement of paper PMC10598134
± gives the standard deviation.

Assay: collision cross section of modified peptide (TIMS, N2, iRT-aligned); higher = larger / more extended gas-phase ion
Method in brief: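 Collision cross section was derived from the Mason-Schamp equation. Each value averages 1–3 technical replicates of the most abundant feature per charge state, measured on a timsTOF Pro/HT in dda-PASEF mode (nitrogen, ~2.4 mbar) after a 120-min nanoflow C18 gradient at 60 °C. Synthetic peptide pools (~100 fmol/µL in 2% acetonitrile/0.1% formic acid, iRT standard spiked 1:40) were identified with MaxQuant, and 1/K0 was calibrated with three reference ions and aligned run-wise to the median iRT peptide deviation.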

[1] = charge state: 2, modification: Biotin
[2] = charge state: 3, modification: Biotin
[3] = charge state: 2, modification: Citrullination (R)
[4] = charge state: 3, modification: Citrullination (R)
[5] = charge state: 2, modification: Phospho (Y)
[6] = charge state: 2, modification: Malonyl
[7] = charge state: 2, modification: GlyGly (K)
[8] = charge state: 3, modification: GlyGly (K)
[9] = charge state: 2, modification: Succinyl
[10] = charge state: 2, modification: Glutarylation
[11] = charge state: 3, modification: Glutarylation
[12] = charge state: 3, modification: Dimethyl (K)
[13] = charge state: 2, modification: Formyl
[14] = charge state: 2, modification: Methyl (K)
[15] = charge state: 3, modification: Methyl (K)
[16] = charge state: 3, modification: Trimethyl (K)
[17] = charge state: 2, modification: Nitro (Y)
[18] = charge state: 2, modification: Crotonyl
[19] = charge state: 3, modification: Crotonyl
[20] = charge state: 2, modification: HexNAc (ST)
[21] = charge state: 2, modification: Hydroxyproline
[22] = charge state: 3, modification: Hydroxyproline
[23] = charge state: 2, modification: hydroxyisobutyryl
[24] = charge state: 3, modification: hydroxyisobutyryl
[25] = charge state: 3, modification: Succinyl
[26] = charge state: 3, modification: Phospho (Y)
[27] = charge state: 3, modification: Methyl (R)
[28] = charge state: 2, modification: Dimethyl (K)

PSVGSQSNQAGQGKR [_PSVGSQSNQAGQGK(Biotin)R_]
collision cross section [1]: 421.78 ± 0.67 Å² | collision cross section [2]: 480.61 ± 0.34 Å²

GARLPGPVSSAR [_GAR(Citrullination (R))LPGPVSSAR_]
collision cross section [3]: 355.27 ± 6 Å² | collision cross section [4]: 446.63 Å²

SPASDTYIVFGEAK [_SPASDTY(Phospho (Y))IVFGEAK_]
collision cross section [5]: 410.05 Å²

GGPGSTLSFVGKR [_GGPGSTLSFVGK(Malonyl)R_]
collision cross section [6]: 380.38 ± 0.0061 Å²

VDVEVPDVSLEGPEGKLK [_VDVEVPDVSLEGPEGK(GlyGly (K))LK_]
collision cross section [7]: 462.5 ± 0.94 Å² | collision cross section [8]: 497.08 ± 1.1 Å²

PGGEGPQCEKTTDVK [_PGGEGPQCEK(Succinyl)TTDVK_]
collision cross section [9]: 437.41 ± 1.1 Å²

SDSGKPYYYNSQTK [_SDSGK(GlyGly (K))PYYYNSQTK_]
collision cross section [7]: 428.35 ± 1.4 Å² | collision cross section [8]: 476.2 ± 1.7 Å²

LLALSGPGGGRGR [_LLALSGPGGGR(Citrullination (R))GR_]
collision cross section [3]: 366.92 ± 1 Å² | collision cross section [4]: 440.81 ± 17 Å²

SKHLQEQLNELK [_SK(Gluratylation)HLQEQLNELK_]
collision cross section [10]: 423.49 ± 0.97 Å² | collision cross section [11]: 496.16 ± 2 Å²

VDIDVPDVNIEGPDAKLK [_VDIDVPDVNIEGPDAK(Dimethyl (K))LK_]
collision cross section [12]: 550.04 ± 1.1 Å²

SGKFTQQDIDEAK [_SGK(Biotin)FTQQDIDEAK_]
collision cross section [1]: 433.94 ± 2.7 Å²

VYIASSSGSTAIKK [_VYIASSSGSTAIK(Formyl)K_]
collision cross section [13]: 408.95 ± 1.8 Å² | collision cross section (charge state: 3, modification: Formyl): 497.96 ± 1.5 Å²

GGPGSTLSFVGKR [_GGPGSTLSFVGK(Gluratylation)R_]
collision cross section [10]: 392.32 ± 0.52 Å² | collision cross section [11]: 441.96 ± 5.9 Å²

RGGFAVQAK [_R(Methyl (R))GGFAVQAK_]
collision cross section (charge state: 2, modification: Methyl (R)): 338.01 ± 1.4 Å²

PSVGSQSNQAGQGKR [_PSVGSQSNQAGQGK(Methyl (K))R_]
collision cross section [14]: 426.09 ± 2.3 Å² | collision cross section [15]: 471.73 ± 2.8 Å²

ITGKNQVTATK [_ITGK(Methyl (K))NQVTATK_]
collision cross section [14]: 372.71 ± 1.1 Å² | collision cross section [15]: 447.83 ± 5.1 Å²

TQAYQDQKPGTSGLR [_TQAYQDQK(Trimethyl (K))PGTSGLR_]
collision cross section [16]: 476 ± 1.5 Å²

LGDVYVNDAFGTAHR [_LGDVY(Nitro (Y))VNDAFGTAHR_]
collision cross section [17]: 443.1 ± 0.55 Å² | collision cross section (charge state: 3, modification: Nitro (Y)): 500.36 ± 1.2 Å²

IVFSGNLFQHQEDSKK [_IVFSGNLFQHQEDSK(Crotonyl)K_]
collision cross section [18]: 503.03 ± 1.1 Å² | collision cross section [19]: 539.53 ± 1.2 Å²

TPNLYIYSKK [_TPNLYIYSK(Malonyl)K_]
collision cross section [6]: 383.2 ± 0.78 Å²

LGNDFHTNKR [_LGNDFHTNK(Propionyl)R_]
collision cross section (charge state: 2, modification: Propionyl): 374.29 Å² | collision cross section (charge state: 3, modification: Propionyl): 447.46 ± 0.59 Å²

DFSLTSSSQTPGATK [_DFS(HexNAc (ST))LTSSSQTPGATK_]
collision cross section [20]: 426.98 ± 0.62 Å² | collision cross section (charge state: 3, modification: HexNAc (ST)): 516.25 Å²

LLFSNTAAQKLR [_LLFSNTAAQK(Crotonyl)LR_]
collision cross section [18]: 404.43 ± 0.55 Å² | collision cross section [19]: 483.58 ± 1.6 Å²

SNEEGSEEKGPEVR [_SNEEGSEEK(GlyGly (K))GPEVR_]
collision cross section [7]: 409.13 ± 2.5 Å² | collision cross section [8]: 474.76 ± 1.1 Å²

VNVEAPDVNLEGLGGKLK [_VNVEAPDVNLEGLGGK(Formyl)LK_]
collision cross section [13]: 459.19 ± 1.2 Å²

ANEKTESSSAQQVAVSR [_ANEK(Methyl (K))TESSSAQQVAVSR_]
collision cross section [14]: 440.42 Å² | collision cross section [15]: 486.23 ± 1.8 Å²

GETASKLQSEISR [_GETASK(Crotonyl)LQSEISR_]
collision cross section [18]: 388.79 ± 0.79 Å² | collision cross section [19]: 466.94 ± 1.6 Å²

IPQEKCILQTDVK [_IPQEK(Gluratylation)CILQTDVK_]
collision cross section [10]: 437.23 ± 0.96 Å²

GQKGEPGLPGHPGK [_GQKGEPGLP(Hydroxyproline)GHPGK_]
collision cross section [21]: 379.44 ± 1.1 Å² | collision cross section [22]: 420.23 ± 0.34 Å²

FGYVDFESAEDLEK [_FGY(Nitro (Y))VDFESAEDLEK_]
collision cross section [17]: 424.66 Å²

PRTPTAPAVNLAGAR [_PR(Citrullination (R))TPTAPAVNLAGAR_]
collision cross section [3]: 411.43 ± 0.98 Å² | collision cross section [4]: 471.47 ± 0.76 Å²

AAQASDLEKIHLDEK [_AAQASDLEK(Dimethyl (K))IHLDEK_]
collision cross section [12]: 503.12 ± 0.75 Å²

GFALVGVGSEASSKK [_GFALVGVGSEASSK(hydroxyisobutyryl)K_]
collision cross section [23]: 419.49 ± 2.2 Å² | collision cross section [24]: 502.54 ± 2.1 Å²

VGIDTPDIDIHGPEGKLK [_VGIDTPDIDIHGPEGK(Succinyl)LK_]
collision cross section [9]: 494.78 Å² | collision cross section [25]: 540.29 ± 1.1 Å²

LQDVSGQLSSSKK [_LQDVSGQLSSSK(hydroxyisobutyryl)K_]
collision cross section [23]: 404.16 ± 0.3 Å² | collision cross section [24]: 470.99 ± 5.5 Å²

SYHLQIVTK [_SY(Phospho (Y))HLQIVTK_]
collision cross section [5]: 357.29 ± 0.065 Å² | collision cross section [26]: 461.35 ± 0.12 Å²

GEAGPTGPQGEPGVRGIR [_GEAGPTGPQGEP(Hydroxyproline)GVRGIR_]
collision cross section [22]: 499.21 ± 1.2 Å²

VDIDVPDVNIEGPDAKLK [_VDIDVPDVNIEGPDAK(Acetyl (K))LK_]
collision cross section (charge state: 2, modification: Acetyl (K)): 477.46 ± 4.2 Å²

YSSNLGNFNYEQRGAFR [_YSSNLGNFNYEQR(Methyl (R))GAFR_]
collision cross section [27]: 534.33 ± 1.9 Å²

GTISAPGKVVTAAAQAK [_GTISAPGK(Succinyl)VVTAAAQAK_]
collision cross section [9]: 439.98 ± 0.51 Å² | collision cross section [25]: 520.85 ± 1.6 Å²

ANLEKAQAELVGTADEATR [_ANLEK(Trimethyl (K))AQAELVGTADEATR_]
collision cross section [16]: 528.43 ± 0.88 Å²

LGVATVAKGVCGACK [_LGVATVAK(Gluratylation)GVCGACK_]
collision cross section [10]: 422.53 Å² | collision cross section [11]: 500.02 Å²

IGNSYFKEEK [_IGNSYFK(Crotonyl)EEK_]
collision cross section [18]: 378.81 ± 0.89 Å²

VTLEVGKVIQQGR [_VTLEVGK(Methyl (K))VIQQGR_]
collision cross section [14]: 428.74 ± 1.9 Å² | collision cross section [15]: 464.87 ± 3.7 Å²

GTISAPGKVVTAAAQAK [_GTISAPGK(hydroxyisobutyryl)VVTAAAQAK_]
collision cross section [23]: 447.84 ± 0.78 Å² | collision cross section [24]: 524.07 ± 2 Å²

RGATPPAPPRR [_R(Methyl (R))GATPPAPPRR_]
collision cross section [27]: 465.62 ± 0.37 Å²

GADFLVTEVENGGSLGSKK [_GADFLVTEVENGGSLGSK(GlyGly (K))K_]
collision cross section [7]: 505.48 Å²

VGTASVLQPVKK [_VGTASVLQPVK(Malonyl)K_]
collision cross section [6]: 381.57 ± 0.0073 Å²

LSQEDPDYGIR [_LS(HexNAc (ST))QEDPDYGIR_]
collision cross section [20]: 396.72 ± 0.76 Å²

PRTPTAPAVNLAGAR [_PR(Methyl (R))TPTAPAVNLAGAR_]
collision cross section [27]: 486.43 ± 2.3 Å²

LDEKENLSAK [_LDEK(Trimethyl (K))ENLSAK_]
collision cross section (charge state: 2, modification: Trimethyl (K)): 376.2 ± 0.61 Å² | collision cross section [16]: 441.92 ± 3.4 Å²

HHAAYVNNLNVTEEK [_HHAAY(Phospho (Y))VNNLNVTEEK_]
collision cross section [5]: 438.56 Å² | collision cross section [26]: 495.42 ± 1.2 Å²

SGKFTQQDIDEAK [_SGK(Methyl (K))FTQQDIDEAK_]
collision cross section [14]: 408.84 ± 1.9 Å² | collision cross section [15]: 468.01 ± 3.6 Å²

LGNDFHTNKR [_LGNDFHTNK(Succinyl)R_]
collision cross section [9]: 377.52 ± 0.24 Å² | collision cross section [25]: 436.15 ± 2.9 Å²

IHNAENIQPGEQKYEYK [_IHNAENIQPGEQK(Methyl (K))YEYK_]
collision cross section [15]: 526.19 ± 0.79 Å²

GEPGQGLRGLQGPPGK [_GEPGQGLRGLQGPP(Hydroxyproline)GK_]
collision cross section [21]: 408.26 ± 1.5 Å² | collision cross section [22]: 445.73 ± 1.3 Å²

PGLQGPR [_P(Hydroxyproline)GLQGPR_]
collision cross section [21]: 288.12 ± 3.8 Å²

PLRAASPFR [_PLR(Citrullination (R))AASPFR_]
collision cross section [3]: 334.99 ± 0.26 Å² | collision cross section [4]: 442.41 Å²

IQQELQTAKK [_IQQELQTAK(Dimethyl (K))K_]
collision cross section [28]: 374.44 ± 1.1 Å² | collision cross section [12]: 426.86 ± 2.1 Å²

LQDVSGQLSSSKK [_LQDVSGQLSSSK(Formyl)K_]
collision cross section [13]: 394.61 ± 0.21 Å²

SSGPGGQNVNKVNSK [_SSGPGGQNVNK(Dimethyl (K))VNSK_]
collision cross section [28]: 397.16 ± 1.7 Å² | collision cross section [12]: 437.57 ± 2.1 Å²

KYEEIDNAPEER [_K(hydroxyisobutyryl)YEEIDNAPEER_]
collision cross section [23]: 416.12 ± 0.31 Å² | collision cross section [24]: 497.05 ± 3.9 Å²

DTPTSAGPNSFNKGK [_DTPTSAGPNSFNK(Biotin)GK_]
collision cross section [1]: 428.73 ± 1.1 Å² | collision cross section [2]: 478.46 Å²

SGGYGGSRDYYSSR [_SGGYGGSR(Methyl (R))DYYSSR_]
collision cross section [27]: 475.52 ± 2 Å²
